Measurements published in PMC3077455.
Read-outs that look alike come from different tables or passages of the source.

Experiments:
[1] = biological target: Cse4 150-229 (sedimentation sample) (budding yeast) (UniProt P36012); test: AUC
[2] = biological target: Cse4 150-229 (sedimentation sample) (budding yeast) (UniProt P36012); test: AUC; remark: listed apart in the source
[3] = biological target: single chain Cse4-H4 (His6-KK-Cse4_(151–207)-LVPRGS-H4_(45–103)) (budding yeast | not stated) (UniProt P36012); test: ITC

Scm3 84-169, sequence (Q12334 84-169): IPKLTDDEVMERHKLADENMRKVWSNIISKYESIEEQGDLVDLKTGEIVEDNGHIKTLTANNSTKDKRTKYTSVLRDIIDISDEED

Row | Substance | stoichiometry N [1] | stoichiometry N [2] | fold reduction of the binding affinity against the wild type [3] [fold]
1 | Scm3 84-169 (from UniProt Q12334 84-169) (domain or fragment) | 1 | 1 | 
2 | Scm3 Ile110Asp/Ile117Asn (from UniProt Q12334 83-169) (domain or fragment) |  |  | 85
3 | histone H4, full length (from UniProt P02309 1-103) (natural protein) | 1 | 1 | 
